The values that follow come from PMC9896449 (Nature Communications, 2023).

For assay [1], the target named is ShAb02 (shark VNAR - human IgG1 Fc chimera) (nurse shark (Ginglymostoma cirratum)). Nature of the assay: BLI. The note with it: both partners purified.
Assay [2] deals with ShAb01 (shark VNAR - human IgG1 Fc chimera) (nurse shark (Ginglymostoma cirratum)). Nature of the assay: BLI. The settings on record: both partners purified.

B1: SARS-CoV-1 RBD (domain or fragment)
chain: not shown
B1: the binding result in assay [1] is on record as “no binding”; in assay [2] it was “binds”.
